Experimental findings from US20210388110A1 (published 2021) are described below.

One assay concerns the target T1, soluble human CD3ε chain (human, UniProt P07766 23-126, limits assumed).
T1 construct: also called human CD3 epsilon chain
Nature of the assay: SPR (Biacore), soluble human CD3ε chain.

The target of the next assay is T2, soluble human GPC3 (human, UniProt P51654 25-563, limits assumed).
T2 construct: also called glypican 3
The assay can be described thus: SPR (Biacore), single-arm antibody, soluble human GPC3.

Positions count from the first letter of the chain named. Several values for one entry are separate records, joined by “and”; a condition that tells them apart may be missing. Equal entries are not always repeated.

T1 sequence (P07766 23-126 limits assumed): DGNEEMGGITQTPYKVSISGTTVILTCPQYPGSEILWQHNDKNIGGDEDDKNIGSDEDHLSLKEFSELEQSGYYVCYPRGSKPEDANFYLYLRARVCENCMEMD
T2 sequence (P51654 other isoform, or with tags, fused parts or gaps limits assumed, form in doubt): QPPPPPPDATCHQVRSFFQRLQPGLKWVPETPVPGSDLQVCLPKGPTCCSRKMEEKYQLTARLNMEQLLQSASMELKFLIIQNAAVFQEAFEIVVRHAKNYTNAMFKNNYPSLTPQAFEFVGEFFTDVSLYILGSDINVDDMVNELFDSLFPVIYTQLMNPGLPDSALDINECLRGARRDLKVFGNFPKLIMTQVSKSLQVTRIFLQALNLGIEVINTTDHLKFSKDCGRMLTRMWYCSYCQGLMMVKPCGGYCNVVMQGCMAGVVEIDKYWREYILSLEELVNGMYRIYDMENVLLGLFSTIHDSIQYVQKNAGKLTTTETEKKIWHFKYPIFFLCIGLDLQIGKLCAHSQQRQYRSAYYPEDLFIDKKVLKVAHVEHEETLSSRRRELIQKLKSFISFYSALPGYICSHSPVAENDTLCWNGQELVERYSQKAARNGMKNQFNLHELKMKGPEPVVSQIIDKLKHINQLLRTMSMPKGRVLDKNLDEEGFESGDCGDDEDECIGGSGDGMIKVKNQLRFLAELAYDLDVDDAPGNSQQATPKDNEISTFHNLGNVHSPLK

B1: TR01H095-E22Hh/none-Hi-Kn010G3/L0011-k0 (antibody, human IgG1, kappa, L234A L235A, N297A)
heavy: QVQLVESGGGLVQPGRSLRLSCAASGFTFSNAWMHWVRQAPGKGLEWVAQIKDKSQNYAFYYAESVKGRFTISRDDSKNSLYLQMNSLKTEDTAVYYCRYVHYAAGYGVDAWGQGTTVTVSSASTKGPSVFPLAPSSKSTSGGTAALGCLVKDYFPEPVTVSWNSGALTSGVHTFPAVLQSSGLYSLSSVVTVPSSSLGTQTYICNVNHKPSNTKVDKKVEPKSCDKTHTCPPCPAPEAAGGPSVFLFPPKPKDTLMISRTPEVTCVVVDVSHEDPEVKFNWYVDGVEVHNAKTKPREEQYASTYRVVSVLTVLHQDWLNGKEYKCKVSNKALPAPIEKTISKAKGQPREPQVYTLPPSRCELTKNQVSLSCAVKGFYPSDIAVEWESNGQPENNYKTTPPVLDSDGSFFLVSKLTVDKSRWQQGNVFSCSVMHEALHNHYTQKSLSLSPDYKDDDDK
chain: EPKSSDKTHTCPPCPAPELLGGPSVFLFPPKPKDTLMISRTPEVTCVVVDVSHEDPEVKFNWYVDGVEVHNAKTKPREEQYNSTYRVVSVLTVLHQDWLNGKEYKCKVSNKALPAPIEKTISKAKGQPREPQVCTLPPSRDELTKNQVSLWCLVKGFYPSDIAVEWESNGQPENNYKTTPPVLDSDGSFFLYSKLTVDKSRWQQGNVFSCSVMHEALHNRYTQKSLSLSP
light: DIVMTQSPLSLPVTPGEPASISCRSSQPLVHSNRNTYLHWYQQKPGQAPRLLIYKVSNRFSGVPDRFSGSGSGTDFTLKISRVEAEDVGVYYCGQGTQVPYTFGQGTKLEIKRTVAAPSVFIFPPSDEQLKSGTASVVCLLNNFYPREAKVQWKVDNALQSGNSQESVTEQDSKDSTYSLSSTLTLSKADYEKHKVYACEVTHQGLSSPVTKSFNRGEC
notes: one-arm antibody (single Fab) with Fab-less hinge-Fc chain Hi-Kn010G3
The term Kd denotes the constant that tells how readily two partners part at equilibrium. Regarding B1, the affinity in the assay with soluble human CD3ε chain, expressed as Kd, was 90.9 nM. In other words, the double-digit nanomolar range.

B2: rCE115H-E22Hh/none-Hi-Kn010G3/rCE115L-k0 (antibody, human IgG1, kappa, L234A L235A, N297A)
heavy: EVQLVETGGSLVQPGKSLKLTCATSGFTFSNAWMHWVRQSPEKQLEWVAQIKAKSNNYATYYAESVKGRFTISRDDSKSNIYLQMNSLKEEDTAVYYCRYVHYGAYYGVDAWGQGTSVTVSSASTKGPSVFPLAPSSKSTSGGTAALGCLVKDYFPEPVTVSWNSGALTSGVHTFPAVLQSSGLYSLSSVVTVPSSSLGTQTYICNVNHKPSNTKVDKKVEPKSCDKTHTCPPCPAPEAAGGPSVFLFPPKPKDTLMISRTPEVTCVVVDVSHEDPEVKFNWYVDGVEVHNAKTKPREEQYASTYRVVSVLTVLHQDWLNGKEYKCKVSNKALPAPIEKTISKAKGQPREPQVYTLPPSRCELTKNQVSLSCAVKGFYPSDIAVEWESNGQPENNYKTTPPVLDSDGSFFLVSKLTVDKSRWQQGNVFSCSVMHEALHNHYTQKSLSLSPDYKDDDDK
chain: B1 chain
light: DVVMTQTPVSMSVSLGGQVSISCRSSQSLVHNNGNTYVSWYIQKPSQSPQLLIYKVSNRFSGISDRFSGSGSGTDFTLKISRVEPDDLGVYYCGQGTQDPYTFGAGTKLELKRTVAAPSVFIFPPSDEQLKSGTASVVCLLNNFYPREAKVQWKVDNALQSGNSQESVTEQDSKDSTYSLSSTLTLSKADYEKHKVYACEVTHQGLSSPVTKSFNRGEC
notes: one-arm antibody (single Fab) with Fab-less hinge-Fc chain Hi-Kn010G3; also called rCE115H-E22Hh//-Hi-Kn010G3/rCE115L-k0
As to B2, in the assay with soluble human CD3ε chain, the Kd is 124 nM and 138 nM.

B3: TR01H015-E22Hh/none-Hi-Kn010G3/TR01L006-k0 (antibody, human IgG1, kappa, L234A L235A, N297A)
heavy: B1 heavy with D53G, Q56N, F60T, D75A, L81I, A104S, G106S, A111I
chain: B1 chain
light: B1 light with R24Q, S25A, Q27E, P28S, Q42L, A48S, R50Q, L109V, K112E
notes: as for B1
B3 yielded a Kd in the assay with soluble human CD3ε chain of 93 nM.

B4: rCE115H-E22Hh/none-Hi-Kn010G3/L0000-k0 (antibody, human IgG1, kappa, L234A L235A, N297A)
heavy: B2 heavy
chain: B1 chain
light: B1 light with P28S
notes: as for B1
Turning to B4, the affinity with soluble human CD3ε chain, expressed as Kd, was 80 nM. The Kd values of the last two molecules are within 1.5-fold of each other.

B5: rCE115H-E22Hh/none-Hi-Kn010G3/L0000vk1-k0 (antibody, human IgG1, kappa, L234A L235A, N297A)
heavy: B2 heavy
chain: B1 chain
light: DIQMTQSPSSLSASVGDRVTITCRSSQSLVHSNRNTYLHWYQQKPGKAPKLLIYKVSNRFSGVPSRFSGSGSGTDFTFTISSLQPEDIATYYCGQGTQVPYTFGQGTKVEIKRTVAAPSVFIFPPSDEQLKSGTASVVCLLNNFYPREAKVQWKVDNALQSGNSQESVTEQDSKDSTYSLSSTLTLSKADYEKHKVYACEVTHQGLSSPVTKSFNRGEC
notes: as for B1
Molecule B5 displayed a Kd with soluble human CD3ε chain of 85.2 nM.

B6: TR01H097-E22Hh/none-Hi-Kn010G3/L0011-k0 (antibody, human IgG1, kappa, L234A L235A, N297A)
heavy: B1 heavy with F60L
chain: B1 chain
light: B1 light
notes: as for B1
As for B6, in the assay with soluble human CD3ε chain, the Kd was 87.6 nM.

B7: TR01H096-E22Hh/none-Hi-Kn010G3/L0011-k0 (antibody, human IgG1, kappa, L234A L235A, N297A)
heavy: B1 heavy with F60G
chain: B1 chain
light: B1 light
notes: as for B1
In the assay with soluble human CD3ε chain, B7 registered a Kd of 74.7 nM.

B8: GCH005-G1dh/none-Hi-Kn010G3/L0000-k0 (antibody, human IgG1, kappa)
heavy: not shown
chain: B1 chain
light: B1 light with P28S
notes: single-arm antibody
For B8, the Kd in the assay with soluble human GPC3 was found to be 5.32 nM.

B9: GCH003-G1dh/none-Hi-Kn010G3/L0000-k0 (antibody, human IgG1, kappa)
heavy: not shown
chain: B1 chain
light: B1 light with P28S
notes: single-arm antibody
As to B9, the affinity in the assay with soluble human GPC3, expressed as Kd, was 5.2 nM.

B10: TR01H109-E22Hh/none-Hi-Kn010G3/L0011-k0 (antibody, human IgG1, kappa, L234A L235A, N297A)
heavy: B1 heavy with F60T, Y62V
chain: B1 chain
light: B1 light
notes: as for B1
In the assay with soluble human CD3ε chain, B10 gave a Kd of 70.6 nM.

B11: TR01H108-E22Hh/none-Hi-Kn010G3/L0011-k0 (antibody, human IgG1, kappa, L234A L235A, N297A)
heavy: B1 heavy with F60T, Y62T
chain: B1 chain
light: B1 light
notes: as for B1
Turning to B11, in the assay with soluble human CD3ε chain, the affinity, expressed as Kd, was 69.8 nM.

B12: hCE115HA-E22Hh/none-Hi-Kn010G3/L0000-k0 (antibody, human IgG1, kappa, L234A L235A, N297A)
heavy: B1 heavy with L11V, D53A, Q56N, F60T, A104G, G106Y
chain: B1 chain
light: B1 light with P28S
notes: as for B1
B12 gave a Kd with soluble human CD3ε chain of 124 nM. This Kd lies about 1.8-fold higher than the previous one.

B13: TR01H102-E22Hh/none-Hi-Kn010G3/L0011-k0 (antibody, human IgG1, kappa, L234A L235A, N297A)
heavy: B1 heavy with F60T, Y62F
chain: B1 chain
light: B1 light
notes: as for B1
In the assay with soluble human CD3ε chain, B13 showed a Kd of 85.4 nM.

B14: TR01H106-E22Hh/none-Hi-Kn010G3/L0011-k0 (antibody, human IgG1, kappa, L234A L235A, N297A)
heavy: B1 heavy with F60T, Y62P
chain: B1 chain
light: B1 light
notes: as for B1
For the molecule B14, in the assay with soluble human CD3ε chain, binding was characterised by a dissociation constant (Kd) of 100 nM.

B15: TR01H103-E22Hh/none-Hi-Kn010G3/L0011-k0 (antibody, human IgG1, kappa, L234A L235A, N297A)
heavy: B1 heavy with F60T, Y62G
chain: B1 chain
light: B1 light
notes: as for B1
B15 registered a Kd in the assay with soluble human CD3ε chain of 77.2 nM.

B16: TR01H104-E22Hh/none-Hi-Kn010G3/L0011-k0 (antibody, human IgG1, kappa, L234A L235A, N297A)
heavy: B1 heavy with F60T, Y62I
chain: B1 chain
light: B1 light
notes: as for B1
Turning to B16, in the assay with soluble human CD3ε chain, the Kd came to 82.6 nM.

B17: TR01H105-E22Hh/none-Hi-Kn010G3/L0011-k0 (antibody, human IgG1, kappa, L234A L235A, N297A)
heavy: B1 heavy with F60T, Y62L
chain: B1 chain
light: B1 light
notes: as for B1
For the molecule B17, in the assay with soluble human CD3ε chain, the affinity, expressed as Kd, was 69.5 nM. The Kd values of the last two molecules are within 1.5-fold of each other.

B18: TR01H099-E22Hh/none-Hi-Kn010G3/L0011-k0 (antibody, human IgG1, kappa, L234A L235A, N297A)
heavy: B1 heavy with F60Q
chain: B1 chain
light: B1 light
notes: as for B1
B18: in the assay with soluble human CD3ε chain, the Kd came out at 77.4 nM.

B19: TR01H107-E22Hh/none-Hi-Kn010G3/L0011-k0 (antibody, human IgG1, kappa, L234A L235A, N297A)
heavy: B1 heavy with F60T, Y62Q
chain: B1 chain
light: B1 light
notes: as for B1
In the assay with soluble human CD3ε chain, B19 returned a Kd of 69.1 nM.

B20: TR01H101-E22Hh/none-Hi-Kn010G3/L0011-k0 (antibody, human IgG1, kappa, L234A L235A, N297A)
heavy: B1 heavy with F60V
chain: B1 chain
light: B1 light
notes: as for B1
The molecule B20 registered a Kd with soluble human CD3ε chain of 78.7 nM. This Kd and that of the molecule before are within 1.5-fold of each other.

B21: hCE115HAa-E22Hh/none-Hi-Kn010G3/L0000-k0 (antibody, human IgG1, kappa, L234A L235A, N297A)
heavy: B1 heavy with L11V, R16G, D53A, Q56N, F60T, A104G, G106Y
chain: B1 chain
light: B1 light with P28S
notes: as for B1
Consider B21, for which, in the assay with soluble human CD3ε chain, the Kd was determined as 108 nM.

B22: TR01H098-E22Hh/none-Hi-Kn010G3/L0011-k0 (antibody, human IgG1, kappa, L234A L235A, N297A)
heavy: B1 heavy with F60P
chain: B1 chain
light: B1 light
notes: as for B1
In the assay with soluble human CD3ε chain, B22 registered a Kd of 91.4 nM.
